Here are results for one molecule from US20230025732A1 (INNATE PHARMA, published 2023).

For the assay, the target named is T1, Human CD39-L3, also known as NTPDase3 or ENTPD3 (human, UniProt O75355 44-485, limits assumed).
T1 construct: Recombinant protein coated in ELISA
T1 sequence: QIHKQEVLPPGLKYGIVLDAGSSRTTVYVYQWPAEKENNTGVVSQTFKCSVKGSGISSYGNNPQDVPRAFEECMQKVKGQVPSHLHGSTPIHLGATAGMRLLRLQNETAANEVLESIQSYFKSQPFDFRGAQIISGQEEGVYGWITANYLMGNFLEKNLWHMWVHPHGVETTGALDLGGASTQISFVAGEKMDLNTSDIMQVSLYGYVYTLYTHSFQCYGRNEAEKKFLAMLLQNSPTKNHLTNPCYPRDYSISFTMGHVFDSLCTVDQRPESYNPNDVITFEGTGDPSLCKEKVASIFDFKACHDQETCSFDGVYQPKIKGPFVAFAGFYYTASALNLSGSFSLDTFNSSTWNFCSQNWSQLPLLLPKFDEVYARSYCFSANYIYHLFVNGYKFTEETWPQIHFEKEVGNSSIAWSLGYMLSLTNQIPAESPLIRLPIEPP
The experiment in a line: ELISA on coated recombinant human CD39-L3, panel huCD39 L3; no legend on the sheet, curve is I-394 by paragraph 85. Here is the method: Wells were washed in TBS Tween 20, and further saturated 2H at RT in TBS Blocking buffer. Dose range concentration of primary antibody was incubated in TBS blocking buffer for 2 h at RT. Wells were washed in TBS Tween 20. […] Optical density was measured on Enspire™ at OD=450.
In general terms: ELISA stands for enzyme-linked immunosorbent assay.

B1: I-394 (antibody, human IgG1, V domains shown)
VH: EVQLQQSGPELVKPGASVKMSCKASGYTFTDYNMHWVKQSHGRTLEWIGYIVPLNGGSTFNQKFKGRATLTVNTSSRTAYMELRSLTSEDSAAYYCARGGTRFAYWGQGTLVTVSA
VL: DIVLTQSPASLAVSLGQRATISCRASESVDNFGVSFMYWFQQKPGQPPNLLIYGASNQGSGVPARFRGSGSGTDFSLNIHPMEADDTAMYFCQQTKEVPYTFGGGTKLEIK
In the case of B1, the binding result is “no binding (tested: about 50 µg/ml)”.
